The record followed here is PMC12029569, “Exploring the G-Quadruplex Formation of AS1411 Derivatives”.

Common to all, as to settings: label: 5'-Cy5; G-quadruplex
The target in data set [1] is T1, NCL RBD1,2 (UniProt P19338 307-466). The data set is described as follows: fluorescence titration; Hill n 1.89; K100: 100 mM KCl, 10 mM lithium cacodylate pH 7.2; 100 nM Cy5-oligonucleotide pre-annealed, 5 min equilibration per protein addition; temperature not stated.
For data set [2], the target named is T2, NCL RBD2,3 (UniProt P19338 393-560). The data set is described as follows: fluorescence titration; no measurable interaction; Hill fit not possible; up to 50 nM protein; K100: 100 mM KCl, 10 mM lithium cacodylate pH 7.2; 100 nM Cy5-oligonucleotide pre-annealed, 5 min equilibration per protein addition; temperature not stated.
T2 sequence (P19338 393-560): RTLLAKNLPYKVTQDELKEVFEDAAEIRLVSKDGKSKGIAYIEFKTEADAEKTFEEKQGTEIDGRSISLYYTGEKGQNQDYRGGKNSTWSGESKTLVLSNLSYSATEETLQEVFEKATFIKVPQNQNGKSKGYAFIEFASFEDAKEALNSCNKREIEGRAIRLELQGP
The target in data set [3] is T1, NCL RBD1,2. Description: fluorescence titration; Hill n 0.24; K100: 100 mM KCl, 10 mM lithium cacodylate pH 7.2; 100 nM Cy5-oligonucleotide pre-annealed, 5 min equilibration per protein addition; temperature not stated.
Data set [4] addresses T2, NCL RBD2,3. Description: fluorescence titration; Hill n 0.54; K100: 100 mM KCl, 10 mM lithium cacodylate pH 7.2; 100 nM Cy5-oligonucleotide pre-annealed, 5 min equilibration per protein addition; temperature not stated.
Data set [5] has as its target T1, NCL RBD1,2. Description: fluorescence titration; Hill n 0.37; main text prints 4.6 nM (conflict with Table S4); K100: 100 mM KCl, 10 mM lithium cacodylate pH 7.2; 100 nM Cy5-oligonucleotide pre-annealed, 5 min equilibration per protein addition; temperature not stated.
The target of data set [6] is T2, NCL RBD2,3. The data set is described as follows: fluorescence titration; Hill n 2.08; K100: 100 mM KCl, 10 mM lithium cacodylate pH 7.2; 100 nM Cy5-oligonucleotide pre-annealed, 5 min equilibration per protein addition; temperature not stated.
The target in data set [7] is T1, NCL RBD1,2. Description: fluorescence titration; Hill n 0.20; SD exceeds Kd; K100: 100 mM KCl, 10 mM lithium cacodylate pH 7.2; 100 nM Cy5-oligonucleotide pre-annealed, 5 min equilibration per protein addition; temperature not stated.
The target of data set [8] is T1, NCL RBD1,2. Description: fluorescence titration; Hill n 0.33; K100: 100 mM KCl, 10 mM lithium cacodylate pH 7.2; 100 nM Cy5-oligonucleotide pre-annealed, 5 min equilibration per protein addition; temperature not stated.
Data set [9] addresses T2, NCL RBD2,3. The data set is described as follows: fluorescence titration; Hill n 0.49; SD exceeds Kd; K100: 100 mM KCl, 10 mM lithium cacodylate pH 7.2; 100 nM Cy5-oligonucleotide pre-annealed, 5 min equilibration per protein addition; temperature not stated.
Data set [10] has as its target T1, NCL RBD1,2. The data set is described as follows: fluorescence titration; Hill n 0.31; SD exceeds Kd; K100: 100 mM KCl, 10 mM lithium cacodylate pH 7.2; 100 nM Cy5-oligonucleotide pre-annealed, 5 min equilibration per protein addition; temperature not stated.

T1 sequence (P19338 307-466): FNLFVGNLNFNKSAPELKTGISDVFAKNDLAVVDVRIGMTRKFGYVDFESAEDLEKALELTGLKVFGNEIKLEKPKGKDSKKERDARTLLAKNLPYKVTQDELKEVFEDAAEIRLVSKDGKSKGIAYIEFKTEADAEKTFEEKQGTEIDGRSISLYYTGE

B1: Cy5-AT14T-T2 (structured_DNA)
DNA: TGGTGGTGGTGGTTGGTGGTGGTGGT
For orientation: Kd means the constant that tells how readily two partners part at equilibrium. Read a high Kd as lower affinity. The molecule B1 displayed a dissociation constant Kd in data set [1] of 1.48 ± 0.2 nM. In addition, the binding result in data set [2] is reported as “no binding”.

B2: Cy5-AT14T-T1 (structured_DNA)
DNA: TGGTGGTGGTGGTTTGGTGGTGGTGGT
In data set [3], B2 had a Kd of 3.39 ± 0.58 nM.

B3: Cy5-AT14 (structured_DNA)
DNA: GGTGGTGGTGGTTTTGGTGGTGGTGG
With B3, the Kd in data set [4] came out at 0.08 ± 0.01 nM; in [5], 0.46 ± 0.12 nM.

B4: Cy5-AT14-T1 (structured_DNA)
DNA: GGTGGTGGTGGTTTGGTGGTGGTGG
With B4, the results for the Kd in data set [6] and in data set [7] were 2.16 ± 0.37 nM and 1.4 nM, respectively.

B5: Cy5-AT14-T2 (structured_DNA)
DNA: GGTGGTGGTGGTTGGTGGTGGTGG
On to B5, for which the Kd came out at 0.01 ± 0.01 nM in [8] and 5.37 ± 7.21 nM in data set [9].

B6: Cy5-AT14T (structured_DNA)
DNA: TGGTGGTGGTGGTTTTGGTGGTGGTGGT
The molecule B6 came in with a Kd in [10] of 8.34 ± 13.2 nM. The binding result in data set [2] is recorded as “no binding”.
